The source of these data is patent publication US20160193316A1 (priority 1994, published 2016).

For assay [1], the target named is HLA-A*0201 (Homo sapiens, UniProt P04439, D140Y/D185E/D98H/E176V/E277Q/G131W/G231S/I119V/I121R/I166T/I218V/L300P/L318F/N151K/N90K/P208A/P217A/Q86G/Q94H/R138H/R169H/T345S). The experiment in a line: HLA class I peptide binding assay.
Assay [2] addresses T1, DRB1*0301 (DR3) (Homo sapiens, UniProt P01903+P01911, A100K/A102G/A103R/A169T/F55Y/I96L/K41T/L162R/M171V/P40S/Q125H/Q178H/Q39Y/R42S/S66N/T106N/T262R/W38E/Y61H).
T1 construct: endogenous in cells; host or cells: MAT
As to the kind of experiment: HLA class II peptide binding assay (pH 4.5). To be noted: for DR3 binding information: unit not given; for DR3 binding data: Table XIXb.

The target in assay [3] is T2, DRB1*0101 (DR1) (Homo sapiens, UniProt P01903+P01911, A100R/D57E/F55L/F60I/F76Y/I96L/L162R/M171V/P40L/Q125E/R42F/V115G/Y59C).
T2 construct: endogenous in cells; host or cells: LG2
T2 sequence (P01903 26-254 partner, other chains not shown): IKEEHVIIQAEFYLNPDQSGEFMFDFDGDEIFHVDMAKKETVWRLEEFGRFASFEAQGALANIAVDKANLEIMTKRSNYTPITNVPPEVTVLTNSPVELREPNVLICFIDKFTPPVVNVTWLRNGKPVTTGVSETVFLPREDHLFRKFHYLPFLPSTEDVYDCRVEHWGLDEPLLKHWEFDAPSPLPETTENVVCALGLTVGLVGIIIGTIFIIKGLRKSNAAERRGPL
The experiment in a line: HLA class II peptide binding assay. To be noted: for DR1 binding data: Table XIXb, Malaria Super Motif Peptides With Binding Data.

The target in assay [4] is T3, DRB1*0401 (DR4w4) (Homo sapiens, UniProt P01903+P01911, A100K/A169T/F76Y/I96L/K127E/L162R/M171V/N62H/P40V/Q125Y/R42H/S133A/S149N/S66Y/V115G/V209L/W38E).
T3 construct: endogenous in cells; host or cells: Preiss
T3 sequence (P01903 26-254 partner, other chains not shown): as above
As to the kind of experiment: HLA class II peptide binding assay. The conditions noted are these: for DR4w4 binding data: Table XIXb.

The target in assay [5] is T4, DRB1*0405 (DR4w15) (Homo sapiens, UniProt P01903+P01911, A100R/A169T/D86S/F76Y/I96L/K127E/L162R/M171V/N62H/P40V/Q125Y/R42H/S133A/S149N/S66Y/V115G/V209L/W38E).
T4 construct: endogenous in cells; host or cells: KT3
As to the kind of experiment: HLA class II peptide binding assay. The conditions noted are these: for DR4w15 binding data: Table XIXb.

The target of assay [6] is T5, DRB1*0701 (DR7) (Homo sapiens, UniProt P01903+P01911, A100R/A102G/A103Q/D57E/D86V/E43K/F76Y/K127E/L162R/M171V/P40G/Q125H/Q99D/R33Q/R42Y/R54Q/S133A/S66F/T210M/V115G/Y107V/Y59L/Y89S).
T5 construct: endogenous in cells; host or cells: Pitout
As to the kind of experiment: biochemical. Format: binding.

Assay [7] has as its target T6, DRB1*0802 (DR8w2) (Homo sapiens, UniProt P01903+P01911, A100R/A103L/A169T/F76Y/H45Y/I96F/K41T/L162R/M171V/P40S/Q125H/Q178H/Q39Y/Q99D/R218S/R42G/S66Y/V115G/W38E).
T6 construct: endogenous in cells; host or cells: OLL
The experiment in a line: biochemical. Format: binding.

In assay [8] the target is T7, DRB1*0901 (DR9) (Homo sapiens, UniProt P01903+P01911, A100R/A103E/D57H/D86V/F55Y/F60I/F76Y/I96F/K127E/L162R/M171V/P40D/Q125H/Q99R/R33Q/R42F/S133A/S66N/T210M/V115G/W38K/Y107V/Y59G/Y89S).
T7 construct: endogenous in cells; host or cells: HID
The experiment in a line: biochemical. Format: binding.

Assay [9] concerns the target T8, DRB1*1101 (DR5w11) (Homo sapiens, UniProt P01903+P01911, A100R/A169T/A87E/I96F/K41T/L162R/M171V/P40S/Q125H/Q178H/Q39Y/Q99D/R42S/S66Y/T262R/V115G/W38E).
T8 construct: endogenous in cells; host or cells: Sweig
As to the kind of experiment: biochemical. Format: binding.

In assay [10] the target is T9, DRB1*1201 (DR5w12) (Homo sapiens, UniProt P01903+P01911, A100R/A169T/D57E/D86V/F55L/H45Y/K41T/L162R/M171V/P40S/Q125H/Q178H/Q39Y/Q99D/R42G/S66L/T262R/V114A/V67L/W38E/Y59H/Y61H/Y89S).
T9 construct: endogenous in cells; host or cells: Herluf
As to the kind of experiment: HLA class II peptide binding assay. The conditions noted are these: for DR5w12 binding data: Table XIXb.

Assay [11] has as its target T10, DRB1*1302 (DR6w19) (Homo sapiens, UniProt P01903+P01911, A100E/A169T/K41T/L162R/M171V/P40S/Q125H/Q178H/Q39Y/Q99D/R42S/S66N/T262R/V115G/W38E/Y61H).
T10 construct: endogenous in cells; host or cells: H0301
As to the kind of experiment: HLA class II peptide binding assay. The conditions noted are these: for DR6w19 binding data: Table XIXb.

The target of assay [12] is T11, DRB1*1501 (DR2w2β1) (Homo sapiens, UniProt P01903+P01911).
T11 construct: expressed in transfected cells; host or cells: L466.1 (fibroblasts)
The experiment in a line: HLA class II peptide binding assay. To be noted: for DR2w2β1 binding data: Table XIXb.

Assay [13] concerns the target T12, DRB4*0101 (DRw53) (Homo sapiens, UniProt P01903+P13762, G164S).
T12 construct: expressed in transfected cells; host or cells: L257.6 (fibroblasts)
As to the kind of experiment: HLA class II peptide binding assay (pH 5.0). The conditions noted are these: for DRw53 binding data: Table XIXb.

Assay [14] addresses T13, DRB5*0101 (DR2w2β2) (Homo sapiens, UniProt P01903+Q30154).
T13 construct: expressed in transfected cells; host or cells: L416.3 (fibroblasts) or GM3107
Format: binding.

Assay [15] deals with HLA-A*1101 (Homo sapiens, UniProt P04439, A114D/D185E/E176A/F33Y/L180Q/S129P/T187R). The experiment in a line: HLA class I peptide binding assay. The conditions noted are these: Table XVII, malaria A11 motif peptides; binding value unit not given.
Where [16] appears, read: Malaria A02 motif peptides, Table VIII, unit not given.
Where [17] appears, read: DR3a motif peptides, unit not given, exemplary 15-mer containing the core sequence.

Where two headings read alike, the source gives them in different places.

T10 sequence (P01903 26-254, other chains not shown): as the sequence (P01903 26-254 partner, other chains not shown) above
T8 sequence (P01903 26-254, other chains not shown): as the sequence (P01903 26-254 partner, other chains not shown) above

In the case of ALLQVRKHL, in [1] (setting [16]), the “A*0201 (binding information)” value was determined as 0.0010. This sequence gave a DR3 binding information in [2] (Malaria DR3b motif peptides) of -0.0033.
Take AMICLIQQLNL: the “A*0201 (binding information)” value in assay [1] (setting [16]) is given as 0.0006.
With GLIMVLSFL, the “A*0201 (binding information)” value in [1] was determined as 0.0630.
On the same count and under the same terms, the value for ILSVSSFLFV was 0.0300.
In assay [3] (setting [17]), ILTDGIPDS showed a DR1 binding information of 0.0002. In assay [2] (DR3a motif peptides, exemplary 15-mer containing the core sequence), this sequence gave a DR3 binding information of 0.1400. Besides, the DR4w4 binding information in [4] (setting [17]) worked out at 0.3600. This sequence displayed a DR4w15 binding information in assay [5] (setting [17]) of -0.0014. This sequence gave a DR7 binding information in assay [6] of 0.0046. Besides, the DR8w2 binding information in assay [7] is recorded as -0.0003. Also, the DR9 binding information in [8] is given as 0.0014. The same sequence displayed a DR5w11 binding information in [9] of -0.0004. Further, the DR5w12 binding information in [10] (setting [17]) is 0.0002. The same sequence showed a DR6w19 binding information in assay [11] (setting [17]) of 0.0002. For the same sequence, the DR2w2β1 binding information in assay [12] (setting [17]) is 0.0001. Further, the DRw53 binding information in assay [13] (setting [17]) is given as 0.0480. Moreover, the DR2w2β2 binding information in assay [14] is -0.0006.
For KLRICPICHKKL, the “A*0201 (binding information)” value in assay [1] (setting [16]) worked out at 0.0001.
Still for that read-out and setting: the value for LAGGLALLA was 0.0001.
For the sequence LATSVLAGL, the DR1 binding data in assay [3] is on record as 1.2000. In assay [2], this sequence returned a DR3 binding data of 0.0010. Moreover, the DR4w4 binding data in assay [4] was 3.2000. Moreover, the DR4w15 binding data in assay [5] was 0.1200. Moreover, in assay [6], the DR7 binding data is 0.6500. Besides, the DR8w2 binding data in [7] amounted to 0.1300. In assay [8], the DR9 binding data came out at 2.6000. The same sequence displayed a DR5w11 binding data in [9] of 0.0210. In assay [10], this sequence showed a DR5w12 binding data of 0.0073. Moreover, the DR6w19 binding data in assay [11] is listed as 0.0072. The sequence also yielded a DR2w2β1 binding data in [12] of 0.0018. The sequence further displayed a DR2w2β2 binding data in assay [14] of 0.0700.
Consider LLGGVCLVL, for which the “A*0201 (binding information)” value in assay [1] (setting [16]) is recorded as 0.0038.
In the case of QLVVILIDGI, in assay [1] (setting [16]), the “A*0201 (binding information)” value was 0.0002.
Still for that read-out and setting: the value for SVLACLLGNV was 0.0022; that for VLLGGVCLVL was 0.0290.
In turn, VSTVLLGGV displayed a DR1 binding data in assay [3] of 0.0140. The DR3 binding data in assay [2] is on record as -0.0008. The sequence further displayed a DR4w4 binding data in assay [4] of 0.0016. For the same sequence, in assay [5], the DR4w15 binding data was -0.0014. In addition, the DR7 binding data in [6] is on record as -0.0003. The sequence also displayed a DR8w2 binding data in [7] of -0.0003. In assay [8], this sequence displayed a DR9 binding data of -0.0005. This sequence showed a DR5w11 binding data in [9] of -0.0002. The sequence further displayed a DR5w12 binding data in assay [10] of 0.0005. Also, the DR6w19 binding data in [11] is recorded as 0.0006. Further, in assay [12], the DR2w2β1 binding data turned out to be 0.0001. The DRw53 binding data in [13] is on record as -0.0005. The DR2w2β2 binding data in assay [14] is -0.0005.
VVPGAATPY: the “A*1101 binding information” value in assay [15] is 0.0002. Moreover, the DR1 binding data in assay [3] is 0.1100. For the same sequence, in assay [2], the DR3 binding data was -0.0008. In [4], this sequence registered a DR4w4 binding data of 0.0057. Besides, the DR4w15 binding data in [5] is recorded as -0.0014. The sequence also came in with a DR7 binding data in assay [6] of 0.0160. Further, in assay [7], the DR8w2 binding data is on record as 0.0026. This sequence showed a DR9 binding data in assay [8] of 0.0200. Also, the DR5w11 binding data in [9] turned out to be 0.0036. In assay [10], the DR5w12 binding data came out at 0.0061. The sequence also yielded a DR6w19 binding data in [11] of 0.0017. Further, the DR2w2β1 binding data in assay [12] amounted to 0.0008. This sequence also registered a DR2w2β2 binding data in assay [14] of 0.0053.
As to YQNNIVDEI, the DR1 binding data in assay [3] turned out to be 0.0001. The sequence further showed a DR3 binding data in assay [2] of 0.0026. For the same sequence, the DR4w4 binding data in assay [4] is -0.0006. Besides, the DR4w15 binding data in assay [5] was -0.0014. The sequence further displayed a DR7 binding data in assay [6] of -0.0003. Besides, in assay [7], the DR8w2 binding data is -0.0003. Also, the DR9 binding data in [8] is -0.0005. The sequence further registered a DR5w11 binding data in [9] of -0.0004. The DR5w12 binding data in assay [10] turned out to be 0.0001. The sequence further gave a DR6w19 binding data in assay [11] of 0.0810. This sequence registered a DR2w2β1 binding data in assay [12] of 0.0001. Further, the DRw53 binding data in [13] is on record as 0.0850. In addition, the DR2w2β2 binding data in assay [14] is -0.0006.
